Assay results taken from patent US20160058881A1, “PRODRUGS WITH PROLONGED ACTION” (INDIANA UNIVERSITY RESEARCH AND TECHNOLOGY CORPORATION, priority 2013, published 2016).
Positions of bridges follow the written chain, without caps; N, C: chain ends. Non-standard residues stand in square brackets, D forms with d. Groups on a side chain read outwards from the residue. No end group written: not given here. *: point of attachment. Docosanoyl = CCCCCCCCCCCCCCCCCCCCCC(=O)*; Phe(4-NH2) = Nc1ccc(C[C@H](N)C(=O)O)cc1; PhLac = O=C(O)[C@@H](O)Cc1ccccc1; Aib = CC(C)(N)C(=O)O; C20 = C20 acyl group

Key:
GLP-1 receptor [1] = molecular target: GLP-1 receptor (Homo sapiens, UniProt P43220); experiment: GLP-receptor luciferase bioassay of samples incubated in 20% human plasma (restored activity); format: cell-based; settings: 37° C., 0 to 5 d
Sequence of GLP-1 receptor (Homo sapiens, UniProt P43220) (P43220 24-463): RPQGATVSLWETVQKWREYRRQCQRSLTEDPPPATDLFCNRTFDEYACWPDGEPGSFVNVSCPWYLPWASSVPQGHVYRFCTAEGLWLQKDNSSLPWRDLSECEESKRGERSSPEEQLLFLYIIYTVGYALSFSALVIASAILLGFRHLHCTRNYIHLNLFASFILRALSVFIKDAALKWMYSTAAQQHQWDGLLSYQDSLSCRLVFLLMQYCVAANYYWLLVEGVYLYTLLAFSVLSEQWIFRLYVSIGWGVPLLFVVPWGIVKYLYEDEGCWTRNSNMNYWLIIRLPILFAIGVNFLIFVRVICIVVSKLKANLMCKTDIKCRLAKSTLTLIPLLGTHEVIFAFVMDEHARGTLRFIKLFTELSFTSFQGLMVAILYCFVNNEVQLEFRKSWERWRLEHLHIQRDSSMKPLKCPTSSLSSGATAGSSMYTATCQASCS
Description: To explore the possible formation of DKP and simultaneous regeneration of the parent drug, the above-mentioned peptides were incubated in 20% human plasma at 37° C. for approximately 5 days. Samples were collected at different time points (0, 1, 2, and 5 days).

GLP-1 receptor [2] = molecular target: GLP-1 receptor (UniProt P43220 24-463, limits assumed); experiment: cell-based or functional assay
glucagon receptor = glucagon receptor (UniProt P47871 26-477, limits assumed); experiment: cell-based or functional assay
Sequence of glucagon receptor (P47871 26-477 limits assumed): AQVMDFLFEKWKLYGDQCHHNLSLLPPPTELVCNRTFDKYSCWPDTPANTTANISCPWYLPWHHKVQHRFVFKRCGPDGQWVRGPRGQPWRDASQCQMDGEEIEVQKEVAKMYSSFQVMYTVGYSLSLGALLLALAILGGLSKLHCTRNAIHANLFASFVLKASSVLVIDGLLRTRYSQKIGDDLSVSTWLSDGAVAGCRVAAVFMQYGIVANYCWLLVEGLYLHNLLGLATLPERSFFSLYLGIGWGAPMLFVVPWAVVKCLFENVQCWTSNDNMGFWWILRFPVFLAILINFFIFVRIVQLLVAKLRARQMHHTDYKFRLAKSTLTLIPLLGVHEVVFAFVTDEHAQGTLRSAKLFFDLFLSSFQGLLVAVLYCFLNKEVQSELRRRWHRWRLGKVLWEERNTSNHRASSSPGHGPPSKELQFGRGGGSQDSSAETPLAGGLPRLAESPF

| GLP-1 EC50 (GLP-1 receptor [2]) | Glucagon IC50 (glucagon receptor) | Glucagon IC50 (nM); PA = partial antagonist (glucagon receptor) | Molecule | Change of activity over the time points in plasma (GLP-1 receptor [1]) |
| --- | --- | --- | --- | --- |
|  |  |  | C20 attached directly to position 10 (non-prodrug): non-prodrug: C20-acylated lysine attached directly to the 4-amino group of phenylalanine at position 10 of Peptide D (F[Aib]EGTFTSD[Phe(4-NH2)]([Lys-C20])SIYLDKQAA[Aib]EFVNWLLAGGPSSGAPPPS; not fully specified (C-terminus)) | No change |
|  |  |  | C22 attached directly to position 10 (non-prodrug): non-prodrug: C22-acylated lysine attached directly to the 4-amino group of phenylalanine at position 10 of Peptide D (F[Aib]EGTFTSD[Phe(4-NH2)]([Lys-Docosanoyl])SIYLDKQAA[Aib]EFVNWLLAGGPSSGAPPPS; not fully specified (C-terminus)) | No change |
| 289 nM | 22 nM |  | [PhLac]TSDYSKYLDERRAQDFVEWLMKT (lactam 19-23) [[PLA6, D9, E16, E24K28(lactam)]G(6~29) (Table 2 peptide 4)] |  |
| 0.28 nM |  |  | HSQGTFTSDYARYLDARRAREFIKWLVRGRG [ANK2 (Bayer peptide) (Table 2 peptide 9)] |  |
| 0.2 nM |  | 130 nM | HAEGTFTSEYSKYLDERRAKDFVQWLMDT-NH2 (lactam 16-20; N-terminus assumed; SMILES CSCC[C@H](NC(=O)[C@H](CC(C)C)NC(=O)[C@H](Cc1c[nH]c2ccccc12)NC(=O)[C@H](CCC(N)=O)NC(=O)[C@@H](NC(=O)[C@H](Cc1ccccc1)NC(=O)[C@H](CC(=O)O)NC(=O)[C@@H]1CCCCNC(=O)CC[C@H](NC(=O)[C@H](CC(=O)O)NC(=O)[C@H](CC(C)C)NC(=O)[C@H](Cc2ccc(O)cc2)NC(=O)[C@H](CCCCN)NC(=O)[C@H](CO)NC(=O)[C@H](Cc2ccc(O)cc2)NC(=O)[C@H](CCC(=O)O)NC(=O)[C@H](CO)NC(=O)[C@@H](NC(=O)[C@H](Cc2ccccc2)NC(=O)[C@@H](NC(=O)CNC(=O)[C@H](CCC(=O)O)NC(=O)[C@H](C)NC(=O)[C@@H](N)Cc2c[nH]cn2)[C@@H](C)O)[C@@H](C)O)C(=O)N[C@@H](CCCNC(=N)N)C(=O)N[C@@H](CCCNC(=N)N)C(=O)N[C@@H](C)C(=O)N1)C(C)C)C(=O)N[C@@H](CC(=O)O)C(=O)N[C@H](C(N)=O)[C@@H](C)O) [[A2E3, E16K20(Lactam), D28]G(1~29) (Table 2 peptide 8)] |  |
|  | 63 nM |  | AEGTFTSEYSKYLDERRAKDFVQWLMDT (lactam 15-19) [[A2E3, E16K20(Lactam),D28]G(2~29) (Table 2 peptide 7)] |  |
| 239 nM | 74 nM |  | [PhLac]TSDYSKYLDERRAKDFVEWLMDT (lactam 15-19) [[PLA6, D9, E16, K20E24(Lactam), D28]G(6-29) (Table 2 peptide 3)] |  |
| 151 nM | 10 to 30 nM |  | GTFTSEYSKYLDERRAKDFVQWLMDT-NH2 (lactam 13-17; N-terminus assumed; SMILES CSCC[C@H](NC(=O)[C@H](CC(C)C)NC(=O)[C@H](Cc1c[nH]c2ccccc12)NC(=O)[C@H](CCC(N)=O)NC(=O)[C@@H](NC(=O)[C@H](Cc1ccccc1)NC(=O)[C@H](CC(=O)O)NC(=O)[C@@H]1CCCCNC(=O)CC[C@H](NC(=O)[C@H](CC(=O)O)NC(=O)[C@H](CC(C)C)NC(=O)[C@H](Cc2ccc(O)cc2)NC(=O)[C@H](CCCCN)NC(=O)[C@H](CO)NC(=O)[C@H](Cc2ccc(O)cc2)NC(=O)[C@H](CCC(=O)O)NC(=O)[C@H](CO)NC(=O)[C@@H](NC(=O)[C@H](Cc2ccccc2)NC(=O)[C@@H](NC(=O)CN)[C@@H](C)O)[C@@H](C)O)C(=O)N[C@@H](CCCNC(=N)N)C(=O)N[C@@H](CCCNC(=N)N)C(=O)N[C@@H](C)C(=O)N1)C(C)C)C(=O)N[C@@H](CC(=O)O)C(=O)N[C@H](C(N)=O)[C@@H](C)O) [[E9, E16K20(lactam), D28]G(4~29) (Table 2 peptide 5)] |  |
